Experimental findings from paper doi:10.1101/2023.05.08.539884 are described below.

Read-outs that look alike come from different tables or passages of the source.

As usually defined, the stoichiometry N is the number of molecules, sites or subunits per partner or assembly.

Assay [1] has as its target UBR4_(4730-5183) (human) (UniProt Q5T4S7). The assay can be described thus: ITC. For orientation: ITC needs no label: the signal is the heat of the interaction.
Assay [2] shares this target. The assay can be described thus: ITC. This is another data set of the same source.

Sequence of UBR4_(4730-5183) (human) (Q5T4S7 4730-5183): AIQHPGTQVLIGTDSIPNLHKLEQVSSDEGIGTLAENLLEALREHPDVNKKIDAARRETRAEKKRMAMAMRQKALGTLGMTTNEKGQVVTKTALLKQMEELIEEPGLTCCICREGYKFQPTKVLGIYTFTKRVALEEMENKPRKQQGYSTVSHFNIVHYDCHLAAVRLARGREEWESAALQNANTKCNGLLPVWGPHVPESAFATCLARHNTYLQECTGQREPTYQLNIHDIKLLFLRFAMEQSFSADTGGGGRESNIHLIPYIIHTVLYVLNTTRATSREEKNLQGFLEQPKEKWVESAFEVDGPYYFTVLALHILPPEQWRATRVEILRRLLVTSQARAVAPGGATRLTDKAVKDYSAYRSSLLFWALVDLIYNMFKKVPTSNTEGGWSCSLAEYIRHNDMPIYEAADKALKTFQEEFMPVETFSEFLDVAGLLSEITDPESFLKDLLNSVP
Sequence of UBE2A (P49459 whole entry): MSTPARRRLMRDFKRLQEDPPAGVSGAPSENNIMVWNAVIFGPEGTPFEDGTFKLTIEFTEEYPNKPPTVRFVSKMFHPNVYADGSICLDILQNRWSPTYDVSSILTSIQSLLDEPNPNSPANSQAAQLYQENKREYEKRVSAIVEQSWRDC

Consider “UBE2A (from UniProt P49459 1-152) (enzyme)”, for which, in the assay with UBR4_(4730-5183) (human) [1], the stoichiometry N turned out to be 1. In the assay with UBR4_(4730-5183) (human) [2], this substance returned a dH of -7.37 kcal/mol and a stoichiometry N of 0.904.
